Test results: the supplement of paper PMC9732359
± gives the uncertainty stated by the source.

Assay: protein stability index of a GFP-peptide fusion (yeast GPS) (PSI 1-4); higher = more stable; sorted into four equal gates, so the index is relative within each strain
Method in brief: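 Plasmids in a pooled yeast library fused tiled 17-residue yeast protein peptides downstream of GFP and also expressed Cherry. Mid-log cultures grown without leucine were sorted into four equal gates by GFP/Cherry fluorescence ratio. Each gate's plasmids were PCR-amplified and Illumina-sequenced, and reads were matched to strains by barcodes. The protein stability index is derived by multiplying each gate's read frequency by its gate number and summing the results.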

Sequence | protein stability index (doa10∆) | protein stability index (pdr5∆) | protein stability index (san1∆) | protein stability index (ubr1∆)
GGALDNPFEDDMDGVDF [BRN1] | 3.39 ± 0.054 | 3.32 ± 0.077 | 3.4 ± 0.039 | 3.41 ± 0.057
GGDVVKFQKLLQNSERD [SMC4] | 3.15 ± 0.073 | 3.11 ± 0.049 | 3.06 ± 0.047 | 2.96 ± 0.052
GGESAYFFQLQIRSADE [RPC11] | 2.73 ± 0.06 | 2.88 ± 0.062 | 2.71 ± 0.06 | 3.22 ± 0.062
GGESMEGPKKCIQVNCL [SNM1] | 1.92 ± 0.053 | 1.95 ± 0.054 | 2.23 ± 0.1 | 1.79 ± 0.054
GGNNNNNSTGIANDNVI [SWI1] | 2.87 ± 0.057 | 3 ± 0.053 | 2.94 ± 0.05 | 3.14 ± 0.044
GGQTKPVFHKKAKTTKK [RPL42A] | 2.72 ± 0.056 | 2.94 ± 0.076 | 2.73 ± 0.064 | 2.89 ± 0.045
GGSFGNREEFINKLVKS [RPL7A] | 2.98 ± 0.22 |  | 3.18 ± 0.17 | 2.93 ± 0.077
GGSGAATFSVSQASSDL [CSL4] | 3.4 ± 0.08 | 3.31 ± 0.074 | 3.43 ± 0.061 | 3.36 ± 0.06
GHIAKLMATEYQDIEGG [RPB2] | 3.45 ± 0.29 |  |  | 3.18 ± 0.13
GHSLGEYAALASLADVM [FAS1] | 2.27 ± 0.061 | 2.29 ± 0.057 | 1.92 ± 0.078 | 2.6 ± 0.059
GIAIGLNKGKKVTQMTP [RPL36B] |  | 1.51 ± 0.2 |  | 
GIDPDETVPDNVKTSVS [RPO31] | 2.83 ± 0.22 |  |  | 
GIFEKAKAKAVTSKVRN [YMR153W/NUP53] | 2.24 ± 0.1 | 2.59 ± 0.26 | 2.51 ± 0.15 | 2.38 ± 0.085
GIFNLLNTLFNPVTLNE [NUT1] | 2.52 ± 0.051 | 1.93 ± 0.052 | 1.87 ± 0.075 | 1.92 ± 0.048
GIKATNGVVIATEKKSS [PRE8] | 2.91 ± 0.18 | 2.89 ± 0.17 | 2.52 ± 0.26 | 3.09 ± 0.11
GIVSVSDPQMKVFDTLT [RPN1] | 2.81 ± 0.16 | 2.93 ± 0.12 | 2.87 ± 0.16 | 2.82 ± 0.13
GKGESVIFNDNVTETYS [SIR3] | 3.08 ± 0.21 | 2.92 ± 0.14 | 2.88 ± 0.074 | 2.87 ± 0.2
GKGHLVGRLASVVAKQL [RPL16A] | 1.33 ± 0.057 | 1.48 ± 0.051 | 1.33 ± 0.099 | 1.32 ± 0.05
GKGNTFEKVGSHLYKAR [RPN14] | 2.93 ± 0.25 | 2.81 ± 0.14 |  | 3.27 ± 0.13
GKILTIKQQQQQQQQQN [YML103C/NUP188] | 2.77 ± 0.049 | 3.13 ± 0.053 | 3.12 ± 0.048 | 2.96 ± 0.049
GKIRGVEDDLVTVQTEL [SMC2] | 3.1 ± 0.12 | 2.62 ± 0.068 | 2.48 ± 0.077 | 2.85 ± 0.076
GKKLTDEINTAQDKWHL [RET1] | 3.22 ± 0.1 | 3.18 ± 0.084 | 3.09 ± 0.054 | 2.95 ± 0.13
GKLFSDIKVLKRQLIKE [YIL149C/MLP2] | 3.01 ± 0.12 | 2.56 ± 0.08 | 2.59 ± 0.078 | 2.42 ± 0.04
GKNVINRERFISKLFLR [SMD2] | 2.85 ± 0.093 | 1.69 ± 0.067 | 1.73 ± 0.14 | 2.68 ± 0.12
GKPHFSLLGGFDENIAR [PCI8] | 3.18 ± 0.11 | 2.91 ± 0.12 | 3.25 ± 0.095 | 2.96 ± 0.076
GKQVFSLLIKPNHNSPV [RPO31] |  | 3.33 ± 0.28 |  | 
GKRIAYVYRASKEVRGS [RPL33A] | 2.8 ± 0.063 | 2.57 ± 0.08 | 2.43 ± 0.064 | 2.73 ± 0.047
